Experiment in all cases: cell-based or functional assay
The target in assay [1] is T1, Chryseobacterium sp-62563 deamidase Q126Y (Chryseobacterium sp-62563).
T1 sequence: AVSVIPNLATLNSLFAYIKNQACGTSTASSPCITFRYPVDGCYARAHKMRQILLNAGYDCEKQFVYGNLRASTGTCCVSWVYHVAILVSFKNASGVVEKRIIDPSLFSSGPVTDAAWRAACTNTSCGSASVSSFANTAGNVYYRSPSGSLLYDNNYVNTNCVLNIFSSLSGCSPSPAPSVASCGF

Assay [2] has as its target T2, Chryseobacterium sp-62563 deamidase Q160E (Chryseobacterium sp-62563).
T2 sequence: T1 sequence with Y17Q, Q51E

Assay [3] addresses T3, Chryseobacterium sp-62563 deamidase Q172E (Chryseobacterium sp-62563).
T3 sequence: T1 sequence with Y17Q, Q63E

In assay [4] the target is T4, Chryseobacterium sp-62563 deamidase polypeptide (second polypeptide, deamidase domain), wildtype (Chryseobacterium sp-62563).
T4 chain: T1 sequence with Y17Q

In assay [5] the target is T4, Chryseobacterium sp-62563 deamidase ….
In assay [6] the target is T5, Chryseobacterium sp-62563 deamidase V190D (Chryseobacterium sp-62563).
T5 chain: T1 sequence with Y17Q, V81D

In assay [7] the target is T6, Chryseobacterium sp-62563 deamidase V190F (Chryseobacterium sp-62563).
T6 chain: T1 sequence with Y17Q, V81F

In assay [8] the target is T7, Chryseobacterium sp-62563 deamidase V190K (Chryseobacterium sp-62563).
T7 chain: T1 sequence with Y17Q, V81K

The target in assay [9] is T8, Chryseobacterium sp-62563 deamidase V190Q (Chryseobacterium sp-62563).
T8 chain: T1 sequence with Y17Q, V81Q

Assay [10] concerns the target T9, Chryseobacterium sp-62563 deamidase S258E (Chryseobacterium sp-62563).
T9 chain: T1 sequence with Y17Q, S149E

The target of assay [11] is T10, Chryseobacterium sp-62563 deamidase L260K (Chryseobacterium sp-62563).
T10 chain: T1 sequence with Y17Q, L151K

Assay [12] addresses T11, Chryseobacterium sp-62563 deamidase Y261P (Chryseobacterium sp-62563).
T11 chain: T1 sequence with Y17Q, Y152P

Assay [13] concerns the target Chryseobacterium sp-62563 deamidase A131* (Chryseobacterium sp-62563).
In assay [14] the target is Chryseobacterium sp-62563 deamidase D262* (Chryseobacterium sp-62563).
The target of assay [15] is Chryseobacterium sp-62563 deamidase V148* (Chryseobacterium sp-62563).

Substitutions are numbered along the chain they refer to. Numbers in names are those of the source. A value given as a limit tells only on which side of the number the result lay.

B1: Chryseobacterium sp-62563 propeptide F99A (protein)
chain: NQDPNLVAKESNETAMKDFGKTVPVGIEKEDGKFKISFMVTAQPYEIKDSKENAAYISMIKTAVENETPIHVFLKANTNEIAKVDKATDDDIRYFKSVATKEVKEENRK
In assay [1], B1 returned a Leakage activity of 3%. Besides, the Relative activity of maturated deamidase (% initial rate) in assay [1] was 98; in [2], > 100; in [3], 64.

B2: Chryseobacterium sp-62563 propeptide (first polypeptide, propeptide domain), wildtype (other)
chain: B1 chain with A99F
As to B2, the “NanoDSF thermal unfolding temperature” value in [4] was determined as 85.3 ° C; in assay [13] it was 79.1 ° C; in [14], 77.7 ° C; in [15], 69.2 ° C. Further, the “Relative activity of maturated deamidase” value in [5] was < 20 % initial rate; in [6], 30 % initial rate; in assay [7], ≥ 100 % initial rate; in assay [8] it was 36 % initial rate; in assay [9] it was 96 % initial rate; in assay [10] it was ≥ 100 % initial rate. Also, the “Relative activity of maturated deamidase” value in [11] was determined as 73 % initial rate; in [12], 32 % initial rate.

For the origin of these results see patent US20250215412A1 (NOVOZYMES A S, published 2025).
